Laboratory results from the Human Domainome abundance scans (Beltran et al. 2025).
± gives the uncertainty stated by the source.

B1: Transcription factor SOX-4, residues 60 to 127; numbered along this chain, Q06945 (parent)
chain: KRPMNAFMVWSQIERRKIMEQSPDMHNAEISKRLGKRWKLLKDSDKIPFIREAERLRLKHMADYPDYK

Variants of: B1
Test: abundance fitness (aPCA) (normalised: wild type 0, dead -1); higher = more abundant; growth selection in yeast, the domain comes from the species named
Details: Homo sapiens

Q: With M8T as the variant, how does the abundance fitness read?
A: -0.068 ± 0.058

Q: Which abundance fitness does the source give for M8P here?
A: -1.01 ± 0.29

Q: With M8D as the variant, how does the abundance fitness read?
A: 0.088 ± 0.049

Q: With M8Q as the variant, how does the abundance fitness read?
A: 0.193 ± 0.059

Q: For M8H, which abundance fitness is on record?
A: 0.042 ± 0.062

Q: With M8C as the variant, how does the abundance fitness read?
A: -0.278 ± 0.061

Q: Which abundance fitness does the source give for M8R here?
A: -0.176 ± 0.038

Q: With M8G as the variant, how does the abundance fitness read?
A: 0.025 ± 0.041

Q: With M8E as the variant, how does the abundance fitness read?
A: 0.232 ± 0.073

Q: For I30K, which abundance fitness is on record?
A: -0.999 ± 0.12

Q: For R57K, which abundance fitness is on record?
A: -0.375 ± 0.16

Q: For R57D, which abundance fitness is on record?
A: -0.372 ± 0.11

Q: With R57F as the variant, how does the abundance fitness read?
A: 0.056 ± 0.22

Q: For I47Q, which abundance fitness is on record?
A: -0.006 ± 0.074

Q: Which abundance fitness does the source give for I47V here?
A: -0.086 ± 0.037

Q: Which abundance fitness does the source give for I47S here?
A: -0.319 ± 0.041

Q: With I47C as the variant, how does the abundance fitness read?
A: -0.546 ± 0.062

Q: Which abundance fitness does the source give for I47T here?
A: -0.178 ± 0.046

Q: Which abundance fitness does the source give for I47Y here?
A: -0.224 ± 0.054

Q: Which abundance fitness does the source give for R33E here?
A: 0.316 ± 0.067

Q: For R33I, which abundance fitness is on record?
A: -0.051 ± 0.2

Q: Which abundance fitness does the source give for A28G here?
A: -0.166 ± 0.054

Q: For A28T, which abundance fitness is on record?
A: -0.234 ± 0.066

Q: With A28V as the variant, how does the abundance fitness read?
A: -0.169 ± 0.063

Q: Which abundance fitness does the source give for A6F here?
A: -0.671 ± 0.095

Q: For A6G, which abundance fitness is on record?
A: -0.079 ± 0.04

Q: For A6M, which abundance fitness is on record?
A: -1.01 ± 0.098

Q: Which abundance fitness does the source give for R15K here?
A: -0.022 ± 0.052

Q: Which abundance fitness does the source give for R15H here?
A: -0.428 ± 0.14

Q: With R15V as the variant, how does the abundance fitness read?
A: -0.495 ± 0.044

Q: For R15M, which abundance fitness is on record?
A: -0.177 ± 0.053

Q: With R15D as the variant, how does the abundance fitness read?
A: -0.752 ± 0.092

Q: Which abundance fitness does the source give for K59T here?
A: -0.162 ± 0.058

Q: Which abundance fitness does the source give for K59S here?
A: -0.024 ± 0.039

Q: Which abundance fitness does the source give for K59L here?
A: 0.02 ± 0.044

Q: With K59H as the variant, how does the abundance fitness read?
A: -0.108 ± 0.073

Q: With K59G as the variant, how does the abundance fitness read?
A: -0.045 ± 0.038

Q: Which abundance fitness does the source give for D45W here?
A: -0.344 ± 0.12

Q: With D45F as the variant, how does the abundance fitness read?
A: -0.39 ± 0.48

Q: For D45L, which abundance fitness is on record?
A: -0.378 ± 0.09

Q: For D45E, which abundance fitness is on record?
A: -0.074 ± 0.089

Q: Which abundance fitness does the source give for Q12L here?
A: -0.194 ± 0.055

Q: For Q12G, which abundance fitness is on record?
A: -0.265 ± 0.05

Q: With Q12I as the variant, how does the abundance fitness read?
A: -0.101 ± 0.15

Q: For Q12N, which abundance fitness is on record?
A: -0.015 ± 0.099

Q: For M4F, which abundance fitness is on record?
A: -0.033 ± 0.11

Q: Which abundance fitness does the source give for M4P here?
A: 0.002 ± 0.073

Q: For M4S, which abundance fitness is on record?
A: -0.492 ± 0.085

Q: With M4C as the variant, how does the abundance fitness read?
A: -0.709 ± 0.22

Q: For M4I, which abundance fitness is on record?
A: 0.047 ± 0.07

Q: For M4N, which abundance fitness is on record?
A: -0.265 ± 0.11

Q: For M25A, which abundance fitness is on record?
A: -0.019 ± 0.058

Q: For M25Y, which abundance fitness is on record?
A: -0.679 ± 0.21

Q: For M25K, which abundance fitness is on record?
A: -0.216 ± 0.082

Q: Which abundance fitness does the source give for K32S here?
A: -0.067 ± 0.04

Q: With K32V as the variant, how does the abundance fitness read?
A: -0.116 ± 0.035

Q: Which abundance fitness does the source give for K32T here?
A: -0.12 ± 0.053

Q: For K32M, which abundance fitness is on record?
A: 0.082 ± 0.057

Q: With K32A as the variant, how does the abundance fitness read?
A: -0.108 ± 0.047

Q: For S44V, which abundance fitness is on record?
A: -0.164 ± 0.066

Q: Which abundance fitness does the source give for K42I here?
A: -0.609 ± 0.17

Q: For K42Q, which abundance fitness is on record?
A: -0.104 ± 0.063

Q: With K42L as the variant, how does the abundance fitness read?
A: -0.368 ± 0.055

Q: For K42H, which abundance fitness is on record?
A: -0.487 ± 0.28

Q: Which abundance fitness does the source give for L58Q here?
A: 0.046 ± 0.12

Q: With L58S as the variant, how does the abundance fitness read?
A: -0.011 ± 0.034

Q: With L58G as the variant, how does the abundance fitness read?
A: 0.015 ± 0.034

Q: With L58M as the variant, how does the abundance fitness read?
A: -0.043 ± 0.065

Q: Which abundance fitness does the source give for L58R here?
A: 0.007 ± 0.04

Q: For E20Y, which abundance fitness is on record?
A: -0.88 ± 0.33

Q: Which abundance fitness does the source give for E20W here?
A: -0.626 ± 0.1

Q: With E20H as the variant, how does the abundance fitness read?
A: -0.143 ± 0.24

Q: For M19Q, which abundance fitness is on record?
A: -0.112 ± 0.11

Q: For W38H, which abundance fitness is on record?
A: -0.548 ± 0.14

Q: Which abundance fitness does the source give for W38L here?
A: -0.989 ± 0.096

Q: For W38A, which abundance fitness is on record?
A: -1.01 ± 0.1

Q: For W38K, which abundance fitness is on record?
A: -0.708 ± 0.09

Q: With D66I as the variant, how does the abundance fitness read?
A: -0.13 ± 0.19

Q: Which abundance fitness does the source give for D66G here?
A: -0.08 ± 0.07

Q: For D66L, which abundance fitness is on record?
A: -0.152 ± 0.06

Q: For D66P, which abundance fitness is on record?
A: -0.067 ± 0.079

Q: For K1Y, which abundance fitness is on record?
A: -0.116 ± 0.13

Q: With K1L as the variant, how does the abundance fitness read?
A: -0.347 ± 0.21
